# Assay results reported in the RNAGym collection of RNA variant scans (doi:10.7554/elife.90254).
# B1: LINE1-mini (parent)
# chain: GGCAGAGCUCAACACAGCGUGGCAAAGUGGCUGUGGCUAGACUGCC
# Variants of: B1
# Test: self-cleavage, relative activity (ratio to wild type); higher = more cleavage; in vitro, sequencing; the parent is a self-cleaving ribozyme
row,Variant,self-cleavage
1,GGCAGAGCUCAACACAGCGUGGCAAAGUCGCUGUGGCUAGAAUGCC [G29C C42A],0.1
2,GGCAGAGCUCAACACAGCGUGGCAAAGUCGCUGUGGCUAGAGUGCC [G29C C42G],0.02
3,GGCAGAGCUCAACACAGCGUGGCAAAGUCGCUGUGGUUAGACUGCC [G29C C37U],0.02
4,GGCAGAGCUCAACACAGCGUGGCAAAGUCGCUGUGGAUAGACUGCC [G29C C37A],0.02
5,GGCAGAGCUCAACACAGCGUGGCAAAGUCGCUGUGGGUAGACUGCC [G29C C37G],0.02
6,GGCAGAGCUCAACACAGCGUGGCAAAGUAGCCGUGGCUAGACUGCC [G29A U32C],0.18
7,GGCAGAGCUCAACACAGCGUGGCAAAGUAGCAGUGGCUAGACUGCC [G29A U32A],0.4
8,GGCAGAGCUCAACACAGCGUGGCAAAGUAGCGGUGGCUAGACUGCC [G29A U32G],0.46
9,GGCAGAGCUCAACACAGCGUGGCAAAGUAGCUGGGGCUAGACUGCC [G29A U34G],0.38
10,GGCAGAGCUCAACACAGCGUGGCAAAGUAGCUGAGGCUAGACUGCC [G29A U34A],0.19
11,GGCAGAGCUCAACACAGCGUGGCAAAGUAGCUGCGGCUAGACUGCC [G29A U34C],0.08
12,GGCAGAGCUCAACACAGCGUGGCAAAGUUGCUGUGGCUAGACUACC [G29U G44A],0.41
13,GGCAGAGCUCAACACAGCGUGGCAAAGUUGCUGUGGCUAGACUCCC [G29U G44C],0.44
14,GGCAGAGCUCAACACAGCGUGGCAAAGUUGCUGUGGCUAGACUUCC [G29U G44U],0.31
15,GGCAGAGCUCAACACAGCGUGGCAAAGUUGCUGUGGCUAGAAUGCC [G29U C42A],0.14
16,GGCAGAGCUCAACACAGCGUGGCAAAGUUGCUGUGGCUAGAGUGCC [G29U C42G],0.04
17,GGCAGAGCUCAACACAGCGUGGCAAAGUUGCUGUGGCUAGAUUGCC [G29U C42U],0.44
18,GGCAGAGCUCAACACAGCGUGGCAAAGUCGCUGUGGCUAGACGGCC [G29C U43G],0.01
19,GGCAGAGCUCAACACAGCGUGGCAAAGUCGCUGUGGCUAGACCGCC [G29C U43C],0.26

row,Variant,self-cleavage
1,GGCAGAGCUCAACACAGCGUGGCAAAGUCGCUGUGGCUAGACAGCC [G29C U43A],0.03
2,GGCAGAGCUCAACACAGCGUGGCAAAGUCGCUGUAGCUAGACUGCC [G29C G35A],0.13
3,GGCAGAGCUCAACACAGCGUGGCAAAGUCGCUGUUGCUAGACUGCC [G29C G35U],0.06
4,GGCAGAGCUCAACACAGCGUGGCAAAGUCGCUGUCGCUAGACUGCC [G29C G35C],0.15
5,GGCAGAGCUCAACACAGCGUGGCAAAGUAGCUGUGGCUAGACAGCC [G29A U43A],0.16
6,GGCAGAGCUCAACACAGCGUGGCAAAGUAGCUGUGGCUAGACGGCC [G29A U43G],0.04
7,GGCAGAGCUCAACACAGCGUGGCAAAGUAGCUGUGGCUAGACCGCC [G29A U43C],0.08
8,GGCAGAGCUCAACACAGCGUGGCAAAGUCGCUGCGGCUAGACUGCC [G29C U34C],0.1
9,GGCAGAGCUCAACACAGCGUGGCAAAGUCGCUGAGGCUAGACUGCC [G29C U34A],0.28
10,GGCAGAGCUCAACACAGCGUGGCAAAGUCGCUGGGGCUAGACUGCC [G29C U34G],0.2
11,GGCAGAGCUCAACACAGCGUGGCAAAGUCGCUGUGGCUAUACUGCC [G29C G40U],0.07
12,GGCAGAGCUCAACACAGCGUGGCAAAGUCGCUGUGGCUAAACUGCC [G29C G40A],0.07
13,GGCAGAGCUCAACACAGCGUGGCAAAGUCGCUGUGGCUACACUGCC [G29C G40C],0.05
14,GGCAGAGCUCAACACAGCGUGGCAAAGUCGCUGUGGCUAGACUGGC [G29C C45G],0.19
15,GGCAGAGCUCAACACAGCGUGGCAAAGUCGCUGUGGCUAGACUGAC [G29C C45A],0.45
16,GGCAGAGCUCAACACAGCGUGGCAAAGUCGCUGUGGCUAGACUGUC [G29C C45U],0.67
17,GGCAGAGCUCAACACAGCGUGGCAAAGUCGCCGUGGCUAGACUGCC [G29C U32C],0.7
18,GGCAGAGCUCAACACAGCGUGGCAAAGUCGCGGUGGCUAGACUGCC [G29C U32G],0.2
19,GGCAGAGCUCAACACAGCGUGGCAAAGUCGCAGUGGCUAGACUGCC [G29C U32A],0.31

row,Variant,self-cleavage
1,GGCAGAGCUCAACACAGCGUGGCAAAGUCUCUGUGGCUAGACUGCC [G29C G30U],0.67
2,GGCAGAGCUCAACACAGCGUGGCAAAGUCCCUGUGGCUAGACUGCC [G29C G30C],0.23
3,GGCAGAGCUCAACACAGCGUGGCAAAGUCACUGUGGCUAGACUGCC [G29C G30A],1.73
4,GGCAGAGCUCAACACAGCGUGGCAAAGUUGCUGUGGCUAGACUGAC [G29U C45A],0.63
5,GGCAGAGCUCAACACAGCGUGGCAAAGUUGCUGUGGCUAGACUGUC [G29U C45U],1.99
6,GGCAGAGCUCAACACAGCGUGGCAAAGUUGCUGUGGCUAGACUGGC [G29U C45G],0.78
7,GGCAGAGCUCAACACAGCGUGGCAAAGUUGCUGUGGCUACACUGCC [G29U G40C],0.14
8,GGCAGAGCUCAACACAGCGUGGCAAAGUUGCUGUGGCUAAACUGCC [G29U G40A],0.15
9,GGCAGAGCUCAACACAGCGUGGCAAAGUUGCUGUGGCUAUACUGCC [G29U G40U],0.18
10,GGCAGAGCUCAACACAGCGUGGCAAAGUUGCUGCGGCUAGACUGCC [G29U U34C],0.13
11,GGCAGAGCUCAACACAGCGUGGCAAAGUUGCUGAGGCUAGACUGCC [G29U U34A],0.37
12,GGCAGAGCUCAACACAGCGUGGCAAAGUUGCUGGGGCUAGACUGCC [G29U U34G],0.27
13,GGCAGAGCUCAACACAGCGUGGCAAAGUCGCUGUGGCUAGUCUGCC [G29C A41U],0.32
14,GGCAGAGCUCAACACAGCGUGGCAAAGUCGCUGUGGCUAGCCUGCC [G29C A41C],0.04
15,GGCAGAGCUCAACACAGCGUGGCAAAGUCGCUGUGGCUAGGCUGCC [G29C A41G],0.21
16,GGCAGAGCUCAACACAGCGUGGCAAAGUAGCUGUGGCAAGACUGCC [G29A U38A],0.28
17,GGCAGAGCUCAACACAGCGUGGCAAAGUAGCUGUGGCCAGACUGCC [G29A U38C],0.44
18,GGCAGAGCUCAACACAGCGUGGCAAAGUAGCUGUGGCGAGACUGCC [G29A U38G],0.01
